In patent US20070021595A1:
Blank lines part the entries; values can stand above or below the binder they belong to.

Assays:
[1] = target: HBV recombinant antigen GST-pre-S1(1-56) (hepatitis B virus); experiment: competitive ELISA, pre-S1 antigen in solution and on plate
[2] = target: HBV recombinant antigen GST-pre-S1(1-56) (hepatitis B virus); experiment: competitive ELISA, GST-pre-S1(1-56) on plate, COS7 supernatant
[3] = target: HBV recombinant antigen GST-pre-S1(1-56) (hepatitis B virus); experiment: competitive ELISA as in Test Example 2, purified antibody from CHO cells
[4] = target: HBV recombinant antigen GST-pre-S1(1-56) (hepatitis B virus); experiment: competitive ELISA as in Test Example 2

Kd [1]: 8.2 nM | Kd [2]: 11 nM
B1: chimeric antibody chKR127 (wild type) (antibody, V domains shown)
VH: QVQLVQSGAEVKAPGASVKVSCKASGYTFTSAWMNWVRQAPGQGLEWMGRIYPSGGSTSYAQKFQGRVTMTADKSTSTVYMELSSLRSEDTAVYYCAREYRVARWGQGTLVTVSA
VL: DIVMTQTPLSLSVTPGQPASISCKSSQSLLYSNGKTYLNWLLQKPGQPPQRLIYLVSNRDSGVPDRFSGSGSGTDFTLKISRVEAEDVGVYYCVQGTHFPQTFGGGTKVEIK

Kd [3]: 0.16 nM | fold higher affinity than the control group [3]: 50 fold
B2: humanized antibody HuKR127 (antibody, V domains shown)
VH: QVQLVQSGAEVKAPGASVKVSCKASGYTFTSAWMNWVRQAPGQGLEWMGRIYPSGGSTSYAQKFQGRVTMTADKSTSTVYMELSSLRSEDTAVYYCAREYRVARWGQGTLVTVSA
VL: DIVMTQTPLSLSVTPGQPASISCKSSQSLLYSNGKTYLNWLLQKPGQPPQRLIYLVSNRDSGVPDRFSGSGSGTDFTLKISRVEAEDVGVYYCVQGTHFPQTFGGGTKVEIK

Kd [4]: 0.15 nM | fold higher affinity than HZKR127I [4]: 50 fold
B3: humanized antibody of humanized heavy chain HuKR127HC (HuKR127VH-VII) and humanized antibody HZKR127I light chain (antibody, part only; not given: Light chain, V domains shown, part only)
VH: QVQLVQSGAEVKAPGASVKVSCKASGYTFTSAWMNWVRQAPGQGLEWMGRIYPSGGSTSYAQKFQGRVTMTADKSTSTVYMELSSLRSEDTAVYYCAREYRVARWGQGTLVTVSA
